Laboratory results taken from patent publication US7214663B2, “Tripeptide prodrug compounds” (Medarex, Inc., priority 2001, dated 2007).
Read-outs that look alike come from different tables or passages of the source.

Columns and labels:
[1] = SD-MTD studies, 60 days, normal mice (Example 14); settings: mouse, in vivo
Experimental: In the single dose Maximum Tolerated Dose (SD-MTD) studies, groups of normal mice were administered intravenous bolus doses of the prodrug. The mice were observed daily for 60 days and body weights measured twice weekly. The SD-MTD was estimated to be equal to the highest dose that produced no death in mice after 60 days.

[2] = Repeat-dose tolerability / repeat dose MTD in tumor bearing mice; assay type: in vivo, mouse; settings: mouse, in vivo, Table 12, re-analyzed
Excerpt: In one study, one animal in each dose group (n=8) was terminated as a possible drug-related toxicity death late in the study, at Days 58 and 57 in the low and high dose-groups respectively. The safety of the compound was evidenced by little body weight loss in either the high or low dose groups (less than 5% of the initial weight) during the 60-day observation period, in surviving animals (FIG. 14). In the other study, both the high and low dose were well tolerated. Only one animal in the high dose group (n=10) had over 15% of body weight loss at the end of the study (Day 61).
In repeat-dose studies in tumor bearing mice, groups of ten mice were dosed with various amounts of prodrug for a total of five doses at either five day or 1 week intervals. […] Thus, the prodrugs permit a much greater amount of therapeutic agent to be delivered to the body as a whole and thus to the vicinity of the target cell.

in vivo = settings: female, ICR, mouse, iv, 100 umol/kg
Experimental: (§3) Plasma was obtained from three individual animals in each group at 5 minutes, 1, 2, 4, or 6 hr.

[3] = test system: HT-29 (colon carcinoma) cells; settings: HT29, 48 hours, 3H-thymidine incorporation
Experimental: (§1) Adherent cells, LNCaP (prostate carcinoma), HT-29 (colon carcinoma) and PC-3 (prostate carcinoma), were cultured in DMEM media containing 10% heat inactivated fetal calf serum (FCS). On the day of the study the cells were detached from the plate with a trypsin solution. The collected cells were washed and resuspended at a concentration of 0.25×10^6 cells/ml in DMEM containing 10% FCS. 100 μl of cell suspension were added to 96 well plates and the plates were incubated for 3 hours to allow the cells to adhere. […] The plates were then incubated for 24 hours, pulsed with 10 μl of a 100 μCi/ml ^3H-thymidine and incubated for an additional 24 hours (total incubation time 48 hours). The plates were harvested using a 96 well Harvester (Packard Instruments) and counted on a Packard Top Count Counter. Four parameter logistic curves were fitted to the ^3H-thymidine incorporation as a function of drug molarity using Prism software to determine IC50 values.
(§2) Prostate carcinoma cells, LNCaP and PC-3 cells or colon carcinoma cells HT-29, were incubated with increasing concentration of the indicated compounds for 48 hours and cellular proliferation was measured using the ^3H-thymidine assay.

[4] = test system: LNCaP (prostate carcinoma) cells; settings: 48 hours, 3H-thymidine incorporation
Experimental: as §1, §2

[5] = test system: PC-3 (prostate carcinoma) cells; settings: PC-3, 48 hours, 3H-thymidine incorporation
Experimental: as §1, §2

[6] = test system: HeLa cell anion exchange fraction (F1), trouase; test: Relative cleavage by HeLa cell anion exchange fraction (F1) versus Suc-βAla-Leu-Ala-Leu standard; assay type: biochemical, human
Experimental: Thirty billion commercially produced HeLa Cells (human cervical carcinoma, Computer Cell Culture Ceizter, Seneffe, Belgium) were homogenized with a sonicator and with a Dounce homogenizer in 108 mL of aqueous lysis solution. The lysis solution contained 0.02% w/v Triton X-100, 0.04% w/v sodium azide, and a cocktail of protease inhibitors (2 tablets/50 mL Complete™, EDTA-free tablets, Roche Molecular Biochemicals). The cell homogenate was centrifuged 30 minutes at 4° C. at 5000×g and the pellet was homogenized in a second 108 mL of lysis solution using a Dounce homogenizer and centrifuged as before. The supernatants were combined and centrifuged for 90 min at 145,000×g at 4° C.
A portion of the ultracentrifugation supernatant was diluted 2-fold with a 20 mM triethanolamine-HCl pH 7.2 buffer containing 0.01% (w/v) Triton X-100 and 0.02% (w/v) sodium azide (equilibration buffer). Thirty mL of the resulting solution, corresponding to approximately 180 mg of protein, was loaded at 4° C. on a 2.6×9.4 cm Source™ 15Q (Amersham Pharmacia Biotech) low pressure anion exchange chromatography column (1 ml/minute). The column was then washed with 250 ml of the equilibration buffer at a flow rate of 1 mL/minute. Proteins were eluted in a NaCl linear concentration gradient (0–0.5 M in the equilibration buffer, total volume of the gradient was 1000 ml) at a flow rate of 3 ml/minute. Two-minute fractions were collected and used for enzyme activity determination using βAla-Leu-Ala-Leu-Dox as the substrate. Its transformation into Ala-Leu-Dox was quantified by reverse phase high performance liquid chromatography utilizing fluorescence detection of the anthracycline moiety. The fractions containing the highest activity levels were pooled (fractions #43–46; ˜0.13 M NaCl), supplemented with protease inhibitors (Complete™, EDTA-free tablets, Roche Molecular Biochemicals), and stored as aliquots at −80° C.
Test compounds were incubated for 2 hr at 37° C. at a concentration of 12.5 μg/mL with HeLa cell anion exchange fraction (F1), as prepared in Example 1(c). Following incubation, three volumes of acetonitrile were added to stop the reaction and remove protein from the mixture. The sample was centrifuged at 18,000 g for 5 minutes and 100 μL of supernatant was mixed with 300 μL of water prior to analysis by HPLC. For HPLC analysis 50 μL of sample was injected on a 4.6×50 mm 2μ TSK Super-ODS chromatography column at 40° C. and eluted with a 3 minute linear gradient from 26% to 68% acetonitrile in aqueous 20 mM ammonium acetate pH 4.5 buffer at 2 mL/min. Detection was by fluorescence using an excitation wavelength of 235 nm and an emission wavelength of 560 nm.
the amount of cleavage of each test compound was compared to the amount of a standard Suc-βAla-Leu-Ala-Leu-therapeutic agent conjugate cleaved by F1 under the same conditions. The therapeutic agent in the standard (Dox or Dnr) was the same as in the test compound. Table 3 provides the relative cleavage rates of several tripeptide prodrugs.

[7] = Metabolism and clearance of Suc-Met-Ala-Leu-Dox in mice (plasma, urine); assay type: in vivo, mouse; settings: mouse, in vivo, iv, 120 mg/kg
Experimental: Plasma samples were obtained at 1 or 4 hours, and urine was collected at 2 and 24 hours post administration. Levels of the prodrug and metabolites were measured by LC-MS with UV detection of doxorubicin.

[8] = mouse, in vivo
[9] = test system: healthy young female normal mice; settings: Example 7
[10] = Comparative metabolism in mice, plasma AUC
Experimental: as §3

[11] = iv, Table 11, doses as first stated, intravenous bolus, 60 days, read-out: SD MTD
[12] = intravenous, SD MTD (mg/kg), value in parentheses (doxorubicin equivalent dose), Table 11, doses as first stated
[13] = intravenous, SD MTD (mg/kg), value in parentheses: doxorubicin equivalent dose, Table 12, re-analyzed data and new data
[14] = intravenous, Table 12, re-analyzed data and new data, read-out: SD MTD
[15] = single IV bolus approximately 100 μmol/Kg, ICR mice

## COc1cccc2c1C(=O)c1c(O)c3c(c(O)c1C2=O)C[C@@](O)(C(=O)CO)C[C@@H]3O[C@H]1C[C@H](NC(=O)[C@H](CC(C)C)NC(=O)[C@H](C)NC(=O)[C@H](CC(C)C)NC(=O)CCNC(=O)CCC(=O)O)[C@H](O)[C@H](C)O1 [Suc-βAla-Leu-Ala-Leu-Dox, reference compound]
[1]; SD MTD (mg/kg), value in parentheses (doxorubicin equivalent dose), Table 11, doses as first stated
  MTD: 42 mg/kg
[1]; SD MTD (mg/kg), value in parentheses: doxorubicin equivalent dose, Table 12, re-analyzed data and new data
  MTD: 28 mg/kg
[1]; Table 12, re-analyzed data and new data, read-out: SD MTD
  MTD: 50 mg/kg
[1]; [11]
  MTD: 75 mg/kg
[2]; Repeat Dose MTD (mg/kg), value in parentheses: doxorubicin equivalent dose, Q 5 D × 5 or Q 7 D × 5
  MTD: 32 mg/kg
[2]; Q 5 D × 5 or Q 7 D × 5 as given per compound, read-out: Repeat Dose MTD
  MTD: 57 mg/kg
In vivo
  AUC: 806 µM·h

## COc1cccc2c1C(=O)c1c(O)c3c(c(O)c1C2=O)C[C@@](O)(C(=O)CO)C[C@@H]3O[C@H]1C[C@H](NC(=O)[C@H](CC(C)C)NC(=O)[C@H](Cc2ccc(O)cc2)NC(=O)[C@H](CC(C)C)NC(=O)CCC(=O)O)[C@H](O)[C@H](C)O1 [Suc-Leu-Tyr-Leu-Dox]
[3]
  IC50: 42 µM
[4]
  IC50: 9.4 µM
[5]
  IC50: 51 µM
[1]; [12]
  MTD at 60 day: > 70 mg/kg
[1]; [13]
  MTD at 60 day: > 70 mg/kg
[1]; [14]
  MTD at 60 day: > 128 mg/kg
[1]; [11]
  MTD at 60 day: > 128 mg/kg

## COc1cccc2c1C(=O)c1c(O)c3c(c(O)c1C2=O)C[C@@](O)(C(=O)CO)C[C@@H]3O[C@H]1C[C@H](NC(=O)[C@H](CC(C)C)NC(=O)[C@H](C)NC(=O)[C@H](CCSC)NC(=O)CCC(=O)O)[C@H](O)[C@H](C)O1 [Suc-Met-Ala-Leu-Dox]
[6]; 2 hr at 37° C., 12.5 μg/mL, HeLa F1, relative to Suc-βAla-Leu-Ala-Leu-(Dox or Dnr) standard
  Relative Cleavage %: 49%
[6]; relative to Suc-βAla-Leu-Ala-Leu-Dox = 100 (Tables 11 and 12)
  Relative Rate of Cleavage: 49
[1]; [12]
  MTD at 60 day: 42 mg/kg
[1]; [13]
  MTD at 60 day: 42 mg/kg
[1]; [14]
  MTD at 60 day: 70 mg/kg
[1]; [11]
  MTD at 60 day: 70 mg/kg
[7]
  Plasma 4 hr, percent of administered dose: ~0.001%
  Urine 2 hr, percent of administered dose: 6.6%
[8]; intravenous
  MTD at 28 day: ~40 mg/kg
[8]; iv
  MTD at 28 day: ~71 mg/kg
[9]
  dose of doxorubicin at single dose MTD, fold higher than with doxorubicin alone: about 1.5 fold
[9]; single intravenous 24-120 mg/kg
  acute signs of toxicity: no acute signs of toxicity

## CC[C@H](C)[C@H](NC(=O)CCC(=O)O)C(=O)N[C@@H](C)C(=O)N[C@@H](CC(C)C)C(=O)N[C@H]1C[C@H](O[C@H]2C[C@](O)(C(=O)CO)Cc3c(O)c4c(c(O)c32)C(=O)c2c(OC)cccc2C4=O)O[C@@H](C)[C@H]1O [Suc-Ile-Ala-Leu-Dox]
[3]
  IC50: 47 µM
[4]
  IC50: 1.1 µM
[5]
  IC50: 88 µM
[10]; female, ICR, mouse, in vivo, iv, 100 umol/kg
  AUC: 452 µM·h
[10]; single IV bolus approximately 100 μmol/Kg of prodrug, ICR mice
  Dox, area under the plasma concentration time curve: 0.9 µM·h
[10]; [15]
  AL-Dox or AG-DOX, area under the plasma concentration time curve: 1.0 µM·h
  L-Dox or G-Dox, area under the plasma concentration time curve: 6.2 µM·h
